Source: patent CN116262786A (NANJING RONGJIEKANG BIOTECHNOLOGY CO LTD, dated 2023)

B1: 2D8-hFC1 (Fc fusion, human, not shown: a dimerising Fc or GST; small tags and cut ends)
chain: QVQLVESGGGSVQAGGSLRLSCAASDYTYRRYCMGWFRQAPGKEREKVAAIYLGDGTTYYTDSVKGRFTISQENAKNTIYLQMNNLKPEDTAMYYCAADRSGCSVTWSYSAFEDWGQGTQVTVSS
notes: domain: Fc区段 (铰链区 Hinge, CH2和CH3区); VHH cloned into vector RJK-V4-hFC; also called VHH-hFc 2D8; 单域抗体2D8的Fc融合抗体
B2: 1D11-hFC1 (Fc fusion, human, not shown: a dimerising Fc or GST; small tags and cut ends)
chain: QVQLVESGGGSVQAGGSLRLSCAASGDTYSSACMDWFRQAPGKEREGVAGISSGGSTYYADSVKGRFTISRDNAKNTLYLQMNSLKPEDTAMYYCAARRVGRIPCRTMLPGLQDYWGQGTQVTVSS
notes: domain: Fc区段 (铰链区 Hinge, CH2和CH3区); VHH cloned into vector RJK-V4-hFC; also called VHH-hFc 1D11; 单域抗体1D11的Fc融合抗体
B3: 4B10-hFC1 (Fc fusion, human, not shown: a dimerising Fc or GST; small tags and cut ends)
chain: QVQLVESGGGLVQAGGSLRLSCTASGFTFDDYAMGWFRQAPGKEREGVSCISWNGGSTFYADSVKGRFTIVRDNAKNTVYLEMNSLKPEDTAMYYCAALAYCSGGHWSPGDLSGGYWGQGTQVTVSS
notes: domain: Fc区段 (铰链区 Hinge, CH2和CH3区); VHH cloned into vector RJK-V4-hFC; also called VHH-hFc 4B10; 单域抗体4B10的Fc融合抗体
B4: 3H11-hFC1 (Fc fusion, human, not shown: a dimerising Fc or GST; small tags and cut ends)
chain: QVQLVESGGGSVQTGGSPRLSCAVSGHTYSRLSMGWFRQAPGKEREGVAGIYTGGPSGPMTYYADSVKGRFTISQDNAQRTVYLQMNSLKPEDTAMYYCAATPQFLIGSGLLRPDKYNSWGQGTQVTVSS
notes: domain: Fc区段 (铰链区 Hinge, CH2和CH3区); VHH cloned into vector RJK-V4-hFC; also called VHH-hFc 3H11; 单域抗体3H11的Fc融合抗体
B5: 2E5-hFC1 (Fc fusion, human, not shown: a dimerising Fc or GST; small tags and cut ends)
chain: QVQLVESGGGSVQAGGSLRLSCAASGYPYHRVSMGWFRQAPGKEREGVAGIYTGGLYTGGSMTYYADSVKGRFTISQDNARNTVYLQMNSLKPEDTAMYYCAATPQFLIGSGLLRPDKYNSWGQGTQVTVSS
notes: domain: Fc区段 (铰链区 Hinge, CH2和CH3区); VHH cloned into vector RJK-V4-hFC; also called VHH-hFc 2E5; 单域抗体2E5的Fc融合抗体
B6: 3B3-hFC1 (Fc fusion, human, not shown: a dimerising Fc or GST; small tags and cut ends)
chain: QVQLVESGGGSVQAGGSLRLSCAASGYTYRRLSMGWFRQAPGKEREAVGGIYTGESMTYYADSVRGRFTISQDNAQNTVYLQMNSLKPEDTATYYCAATPQFLIGSGLLRPDKYDSWGQGTQVTVSS
notes: domain: Fc区段 (铰链区 Hinge, CH2和CH3区); VHH cloned into vector RJK-V4-hFC; also called VHH-hFc 3B3; 单域抗体3B3的Fc融合抗体
B7: 4E11-hFC1 (Fc fusion, human, not shown: a dimerising Fc or GST; small tags and cut ends)
chain: QVQLVESGGGSVQAGGSLRLSCAVSGYTYSSNSMGWFRQAPGKEREGVAAIYTGGGSTYYADSVKGRFTISQDNAKNTVYLQMNSLKPEDTAMYYCAAGGPTWYDGSWSRGDEYTYWGQGTQVTVSS
notes: domain: Fc区段 (铰链区 Hinge, CH2和CH3区); VHH cloned into vector RJK-V4-hFC; also called VHH-hFc 4E11; 单域抗体4E11的Fc融合抗体
B8: 单域抗体2D8 (VHH)
VHH: B1 chain
notes: Prokaryotic (E. coli) VHH from pMECS-VHH; also called VHH8; not shown: tags from vector pMECS (detected with anti-HA, purified on nickel column)
B9: 单域抗体4B10 (VHH)
VHH: B3 chain
notes: Prokaryotic (E. coli) VHH from pMECS-VHH; also called VHH14; not shown: tags from vector pMECS (detected with anti-HA, purified on nickel column)
B10: 单域抗体3H11 (VHH)
VHH: B4 chain
notes: Prokaryotic (E. coli) VHH from pMECS-VHH; also called VHH15; not shown: tags from vector pMECS (detected with anti-HA, purified on nickel column)
B11: 单域抗体2E5 (VHH)
VHH: B5 chain
notes: Prokaryotic (E. coli) VHH from pMECS-VHH; also called VHH11; not shown: tags from vector pMECS (detected with anti-HA, purified on nickel column)
B12: 单域抗体3B3 (VHH)
VHH: B6 chain
notes: Prokaryotic (E. coli) VHH from pMECS-VHH; also called VHH4; not shown: tags from vector pMECS (detected with anti-HA, purified on nickel column)
B13: 单域抗体4E11 (VHH)
VHH: B7 chain
notes: Prokaryotic (E. coli) VHH from pMECS-VHH; also called VHH18; not shown: tags from vector pMECS (detected with anti-HA, purified on nickel column)
B14: 单域抗体1D11 (VHH)
VHH: B2 chain
notes: Prokaryotic (E. coli) VHH from pMECS-VHH; also called VHH2; not shown: tags from vector pMECS (detected with anti-HA, purified on nickel column)

target: T1, 小鼠FOLR1 (小鼠 (mouse), UniProt P35846 25-232, limits assumed); test: ELISA, coated FOLR1 of each species 1 μg/mL, VHH-hFc titrated from 2 μg/mL, goat anti-human IgG-HRP
T1 construct: also called mouse FOLR1
T1 sequence (P35846 25-232 limits assumed): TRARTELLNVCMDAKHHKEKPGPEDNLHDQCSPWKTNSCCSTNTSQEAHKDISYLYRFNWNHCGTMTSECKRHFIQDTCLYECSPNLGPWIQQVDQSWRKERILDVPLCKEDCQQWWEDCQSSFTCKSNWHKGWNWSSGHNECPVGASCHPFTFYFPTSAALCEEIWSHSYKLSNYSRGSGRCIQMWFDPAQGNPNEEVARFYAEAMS

| Binder | binding result |
| --- | --- |
| B1 | binds |
| B2 | binds |
| B3 | binds |
| B4 | binds |
| B5 | binds |
| B6 | binds |
| B7 | binds |

target: T2, 人源重组FOLR1蛋白 (人源FOLR1重组胞外结构域蛋白) (human, UniProt P15328 25-233); test: as above
T2 construct: range 25-233; a tag is not mentioned; also called FOLR1重组蛋白; 人FOLR1
T2 sequence (P15328 25-233 limits assumed): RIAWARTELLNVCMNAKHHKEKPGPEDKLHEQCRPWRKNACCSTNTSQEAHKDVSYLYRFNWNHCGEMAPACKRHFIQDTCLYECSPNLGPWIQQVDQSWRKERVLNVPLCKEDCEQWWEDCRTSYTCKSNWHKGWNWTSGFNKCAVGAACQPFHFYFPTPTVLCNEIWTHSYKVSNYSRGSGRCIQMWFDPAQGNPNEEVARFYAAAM

| Binder | binding result |
| --- | --- |
| B1 | binds |
| B2 | binds |
| B3 | binds |
| B4 | binds |
| B5 | binds |
| B6 | binds |
| B7 | binds |

target: T2, 人源重组FOLR1蛋白 (人源FOLR1重组胞外结构域蛋白); test: ELISA, coated FOLR1 1 μg/mL, purified prokaryotic VHH titrated from 2 μg/mL, anti-HA-HRP

| Binder | binding result |
| --- | --- |
| B8 | binds |
| B9 | binds |
| B10 | binds |
| B11 | binds |
| B12 | binds |
| B13 | binds |

target: T2, 人源重组FOLR1蛋白 (人源FOLR1重组胞外结构域蛋白); test: ELISA of crude periplasmic extract on coated FOLR1 recombinant protein, anti-HA-HRP; positive = OD more than 5 times control

| Binder | binding result |
| --- | --- |
| B14 | binds |
